Source: the supplement of paper PMC7125110
± gives the standard error. For some of these results: Variants at the floor of the assay were thinned out.

B1: glmS ribozyme (parent)
chain: AUAAAAGCGCCAGAACUACAGAAAUGUAGUUGACGAGGAGGAGGUUUAUCGAAUUUUCGGCGGAUGCCUCCAAA

Experiments:
Settings in all cases: with glucosamine-6-phosphate
[1] = variants of: B1; assay: kcat; higher = faster cleavage; RNA array
Method in brief: (§1)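 Tiles bearing barcoded ribozyme variants, transcribed in situ by E. coli RNA polymerase on sequenced MiSeq chips, were imaged over ~14 h at 37 °C using a hybridised Cy3 probe. Glucosamine-6-phosphate was supplied at 40 μM to 10 mM in HEPES/KCl/Mg(OAc)2 buffer. kobs came from one- or two-exponential decay fits to normalised per-tile medians, and weighted Michaelis–Menten fits then provided kcat and KM.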

[2] = variants of: B1; assay: self-cleavage kobs at 2500 uM GlcN6P; higher = faster cleavage; RNA array
Method in brief: as §1

[3] = variants of: B1; assay: self-cleavage kobs at 10000 uM GlcN6P; higher = faster cleavage; RNA array
Method in brief: as §1

[4] = variants of: B1; assay: self-cleavage kobs at 40 uM GlcN6P; higher = faster cleavage; RNA array
Method in brief: as §1

[5] = variants of: B1; assay: self-cleavage kobs at 160 uM GlcN6P; higher = faster cleavage; RNA array
Method in brief: as §1

[6] = variants of: B1; assay: self-cleavage kobs at 640 uM GlcN6P; higher = faster cleavage; RNA array
Method in brief: as §1

[7] = variants of: B1; assay: KM; higher = weaker cofactor use; RNA array
Method in brief: as §1

Row | Variant | kcat [1] [s⁻¹] | self-cleavage kobs at 2500 uM GlcN6P [2] [s⁻¹] | self-cleavage kobs at 10000 uM GlcN6P [3] [s⁻¹] | self-cleavage kobs at 40 uM GlcN6P [4] [s⁻¹] | self-cleavage kobs at 160 uM GlcN6P [5] [s⁻¹] | self-cleavage kobs at 640 uM GlcN6P [6] [s⁻¹] | KM [7] [µM]
1 | A48G U69C | 9.33e-05 ± 2.9e-05 | 9.27e-05 ± 3.5e-05 | 7.34e-05 ± 2.5e-05 |  |  |  | 
2 | G32U A36U | < 1e-05 |  | < 1e-05 | < 1e-05 | < 1e-05 |  | 
3 | A14C C68G | 2.74e-05 ± 5.8e-06 |  | 2.58e-05 ± 8.4e-06 |  |  | 4.49e-05 ± 1.5e-05 | 
4 | C16U G43U | 4.2e-05 ± 1.9e-07 | 2.81e-05 ± 1.3e-05 | 3.73e-05 ± 1e-05 |  |  |  | 1250 ± 27
5 | A15G U55C | 0.0256 ± 0.0046 | 0.0125 ± 0.005 | 0.0242 ± 0.0051 | 0.000564 ± 7.9e-05 | 0.00212 ± 0.00033 | 0.0055 ± 0.0011 | 1870 ± 410
6 | A39U U57A | 0.0002 ± 1.2e-05 | 7.13e-05 ± 1e-05 | 0.000134 ± 1.5e-05 |  |  | 2.12e-05 ± 7.4e-06 | 4780 ± 530
7 | A48C C71U | 0.000393 ± 1.6e-05 | 0.000123 ± 1.7e-05 | 0.00026 ± 2.4e-05 |  |  | 4.42e-05 ± 7.8e-06 | 5220 ± 390
8 | A12C A64G | 0.000378 ± 6.7e-05 | 0.000209 ± 3.2e-05 | 0.000415 ± 0.0001 |  |  | 0.000111 ± 1.5e-05 | 1600 ± 500
9 | U31G U49C U54A G63C C68G U69G | 2.53e-05 ± 5.9e-06 |  |  | < 1e-05 |  |  | 
10 | C16G A39C | 0.000798 ± 6e-05 | 0.000427 ± 6.6e-05 | 0.000629 ± 7.2e-05 |  | 4.38e-05 ± 9.6e-06 | 0.000184 ± 2.9e-05 | 2400 ± 310
11 | A15G G44A | 0.000572 ± 0.00011 | 0.000327 ± 5.5e-05 | 0.00044 ± 9.5e-05 |  | 2.81e-05 ± 1.2e-05 | 0.000152 ± 2.1e-05 | 2050 ± 620
12 | G63A C68A | 2.09e-05 ± 4.7e-06 |  |  |  |  |  | 
13 | G13U C68G | 2.36e-05 ± 6.5e-06 |  |  |  |  |  | 
14 | A33G C70A | 1.84e-05 ± 4.6e-06 |  |  |  |  |  | 
15 | U2A G29U | 0.00852 ± 0.0033 |  | 0.00749 ± 0.0017 | 0.000181 ± 3.8e-05 | 0.000569 ± 0.00018 | 0.00137 ± 0.00032 | 
16 | G40A A48G | 4.48e-05 ± 1.1e-05 | 4.6e-05 ± 7.9e-06 | 3.71e-05 ± 7.6e-06 | < 1e-05 |  |  | 

Row | Variant | kcat [1] [s⁻¹] | self-cleavage kobs at 2500 uM GlcN6P [2] [s⁻¹] | self-cleavage kobs at 10000 uM GlcN6P [3] [s⁻¹] | self-cleavage kobs at 40 uM GlcN6P [4] [s⁻¹] | self-cleavage kobs at 160 uM GlcN6P [5] [s⁻¹] | self-cleavage kobs at 640 uM GlcN6P [6] [s⁻¹] | KM [7] [µM]
17 | G41A U45G | 0.000391 ± 0.00013 | 0.000565 ± 0.0001 | 0.000304 ± 5.2e-05 | 2.84e-05 ± 1.3e-05 | 3e-05 ± 1.3e-05 | 0.000144 ± 2.4e-05 | 
18 | U47G C71A | 0.00107 ± 0.00043 | 0.000556 ± 0.0001 | 0.00146 ± 0.0002 | 5.64e-05 ± 1.4e-05 |  | 0.000443 ± 0.0001 | 
19 | U31G G40U | 0.00241 ± 0.0003 | 0.00119 ± 0.00013 | 0.00183 ± 0.0002 | 3.85e-05 ± 7.6e-06 | 0.000115 ± 1.6e-05 | 0.000515 ± 5.8e-05 | 2730 ± 500
20 | A15G U69G | 7.83e-05 ± 1.2e-05 | 0.00012 ± 1.7e-05 | 7.05e-05 ± 9.2e-06 | 3.29e-05 ± 1.2e-05 | 5.34e-05 ± 2.7e-05 | 6.2e-05 ± 1.2e-05 | 
21 | A14U U54G | 0.00917 ± 0.0032 | 0.00387 ± 0.00047 | 0.00759 ± 0.00076 | 0.000217 ± 2.4e-05 | 0.000382 ± 6.2e-05 | 0.00128 ± 0.00026 | 
22 | U30G | 0.0156 ± 0.0046 | 0.00622 ± 0.00028 | 0.0157 ± 0.00058 | 0.000284 ± 5.6e-06 | 0.000809 ± 3e-05 | 0.00344 ± 0.00013 | 2400 ± 840
23 | U46A | 0.00402 ± 0.00054 | 0.00341 ± 0.00031 | 0.00344 ± 9.1e-05 | 9.25e-05 ± 2.1e-06 | 0.000271 ± 1.3e-05 | 0.000926 ± 2.8e-05 | 1880 ± 330
24 | C11U G40C C71U | 0.000141 ± 1.8e-06 | 8.73e-05 ± 2.5e-05 | 0.000124 ± 1.7e-05 |  |  | 4.4e-05 ± 1.6e-05 | 1450 ± 65
25 | U45A C50A | 1.56e-05 ± 1.5e-06 |  |  |  |  |  | 
26 | C50G C67U | 0.000113 ± 9.9e-06 | 0.000126 ± 1.5e-05 | 0.000101 ± 7.4e-06 | 9.57e-05 ± 8e-06 | 0.000129 ± 1.6e-05 | 0.000141 ± 1.7e-05 | 
27 | A15G U47G U55A | 0.0098 ± 0.003 | 0.00474 ± 0.0016 | 0.00887 ± 0.003 | 0.000187 ± 5.9e-05 |  | 0.00364 ± 0.0011 | 1860 ± 850
28 | U46G U65G | 0.00226 ± 0.00027 | 0.00124 ± 0.00017 | 0.0019 ± 0.0003 | 4.1e-05 ± 8.8e-06 | 0.000189 ± 3.4e-05 | 0.000467 ± 7.5e-05 | 2130 ± 380
29 | U46C U57C | 9.95e-05 ± 2e-05 | 4.88e-05 ± 2e-05 | 7.09e-05 ± 1.8e-05 | < 1e-05 |  |  | 
30 | U30A A33C | 6.48e-05 ± 3e-06 |  | 4.35e-05 ± 1.2e-05 |  |  |  | 4930 ± 560
31 | G7U A48U C50G U54G | 3.22e-05 ± 1.3e-05 |  |  |  |  |  | 
32 | A52U C68U | 0.000287 ± 4.1e-06 | 0.000158 ± 1.4e-05 | 0.000236 ± 2.4e-05 |  | 1.96e-05 ± 8.9e-06 | 6.72e-05 ± 8.8e-06 | 2080 ± 62
